Assay results: paper doi:10.1101/2021.03.19.436211 (bioRxiv, 2021)

Assays:
[1] = target: the molecule itself; experiment: SEC
[2] = target: the molecule itself; experiment: SEC-MALS
[3] = target: the molecule itself; experiment: crystal structure

B1: full-length mouse lipin 1α (purified from Sf9 cells) (enzyme, UniProt Q91ZP3-2 1-891, looked up)
chain: MNYVGQLAGQVFVTVKELYKGLNPATLSGCIDIIVIRQPNGSLQCSPFHVRFGKMGVLRSREKVVDIEINGESVDLHMKLGDNGEAFFVQETDNDQEIIPMYLATSPILSEGAARMESQLKRNSVDRIRCLDPTTAAQGLPPSDTPSTGSLGKKRRKRRRKAQLDNLKRDDNVNSSEDEDMFPIEMSSDEDTAPMDGSRTLPNDVPPFQDDIPKENFPSISTHPQSASYPSSDREWSPSPSPSGSRPSTPKSDSELVSKSADRLTPKNNLEMLWLWGELPQAAKSSSPHKMKESSPLGSRKTPDKMNFQAIHSESSDTFSDQSPTMARGLLIHQSKAQTEMQFVNEEDLESLGAAAPPSPVAEELKAPYPNTAQSSSKTDSPSRKKDKRSRHLGADGVYLDDLTDMDPEVAALYFPKNGDPGGLPKQASDNGARSANQSPQSVGGSGIDSGVESTSDSLRDLPSIAISLCGGLSDHREITKDAFLEQAVSYQQFADNPAIIDDPNLVVKVGNKYYNWTTAAPLLLAMQAFQKPLPKATVESIMRDKMPKKGGRWWFSWRGRNATIKEESKPEQCLTGKGHNTGEQPAQLGLATRIKHESSSSDEEHAAAKPSGSSHLSLLSNVSYKKTLRLTSEQLKSLKLKNGPNDVVFSVTTQYQGTCRCEGTIYLWNWDDKVIISDIDGTITRSDTLGHILPTLGKDWTHQGIAKLYHKVSQNGYKFLYCSARAIGMADMTRGYLHWVNERGTVLPQGPLLLSPSSLFSALHREVIEKKPEKFKVQCLTDIKNLFFPNTEPFYAAFGNRPADVYSYKQVGVSLNRIFTVNPKGELVQEHAKTNISSYVRLCEVVDHVFPLLKRSHSCDFPCSDTFSNFTFWREPLPPFENQDMHSASA
Q: Does B1 bind [1]?
A: binds

B2: mouse lipin 1 M-Lip^xtal domain (as used for SEC-MALS) (domain or fragment, UniProt Q91ZP3-2 458-548, looked up)
chain: SLRDLPSIAISLCGGLSDHREITKDAFLEQAVSYQQFADNPAIIDDPNLVVKVGNKYYNWTTAAPLLLAMQAFQKPLPKATVESIMRDKMP
Q: How did the “stoichiometry N” value [2] turn out when B2 was run?
A: 2

B3: mouse lipin 2 M-Lip^xtal domain (domain or fragment, UniProt Q99PI5 459-549, looked up)
chain: SAMDLPDVTLSLCGGLSENGEISKEKFMEHIITYHEFAENPGLIDNPNLVIRIYNRYYNWALAAPMILSLQVFQKSLPKATVESWVKDKMP
Q: Does B3 bind [3]?
A: binds
